Among the data in publication PMC12403835 are Kd values, retold here.

As usually defined, the Kd is a measure of binding affinity in units of concentration. Low readings indicate a tighter complex, high ones a looser complex.

One experiment concerns the target C1q complement component (UniProt P02745). The experiment can be described thus: BLI.
For another experiment, the target named is FcgR3a(F), biotinylated (UniProt P08637). The experiment can be described thus: SPR.
For another experiment, the target named is FcgR3b Biotinylated (UniProt O75015). The experiment in a line: SPR. A general note: Surface plasmon resonance follows binding to a sensor surface in real time, without labels.
The next experiment deals with FcgR3a(V), biotinylated (UniProt P08637). The experiment in a line: SPR.

Chain of UniProt O75015 (O75015 17-200): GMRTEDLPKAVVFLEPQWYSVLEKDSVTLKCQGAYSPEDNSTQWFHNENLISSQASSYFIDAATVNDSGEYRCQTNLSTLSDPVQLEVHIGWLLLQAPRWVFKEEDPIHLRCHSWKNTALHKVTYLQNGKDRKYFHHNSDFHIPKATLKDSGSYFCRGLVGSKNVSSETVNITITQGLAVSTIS
Chain of UniProt P02745 (P02745 23-245, chain 1 of 3): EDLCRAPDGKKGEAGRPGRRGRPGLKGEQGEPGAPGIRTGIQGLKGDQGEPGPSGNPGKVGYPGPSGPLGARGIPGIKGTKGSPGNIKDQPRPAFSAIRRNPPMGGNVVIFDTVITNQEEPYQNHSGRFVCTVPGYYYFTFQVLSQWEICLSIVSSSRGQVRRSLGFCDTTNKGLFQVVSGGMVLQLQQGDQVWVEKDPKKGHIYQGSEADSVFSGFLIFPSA
Chain of UniProt P02745 (P02746 28-253, chain 2 of 3, further chain): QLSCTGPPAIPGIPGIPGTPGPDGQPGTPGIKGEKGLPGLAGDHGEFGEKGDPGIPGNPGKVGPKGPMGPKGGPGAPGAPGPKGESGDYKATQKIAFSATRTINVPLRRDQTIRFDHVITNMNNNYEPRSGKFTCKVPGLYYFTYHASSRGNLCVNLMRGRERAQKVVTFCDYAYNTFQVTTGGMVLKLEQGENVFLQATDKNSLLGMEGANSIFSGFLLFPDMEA
Chain of UniProt P02745 (P02747 29-245, chain 3 of 3, further chain): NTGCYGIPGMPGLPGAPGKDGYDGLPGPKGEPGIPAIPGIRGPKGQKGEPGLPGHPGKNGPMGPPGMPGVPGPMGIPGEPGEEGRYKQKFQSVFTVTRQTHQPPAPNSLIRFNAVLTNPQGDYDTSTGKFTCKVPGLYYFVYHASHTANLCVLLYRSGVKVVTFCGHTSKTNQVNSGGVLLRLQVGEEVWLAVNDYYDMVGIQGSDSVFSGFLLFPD

Regarding CIS43 wild-type mAb (IgG1m3), the dissociation constant Kd with C1q complement component was found to be 1.8 nM; in the experiment with FcgR3a(F), biotinylated, 2510 nM; with FcgR3b Biotinylated it was 5240 nM; with FcgR3a(V), biotinylated, 590 nM.
Regarding CIS43-LS (IgG1m3-LS), the Kd in the experiment with C1q complement component was found to be 1.5 nM; with FcgR3a(F), biotinylated, 2780 nM; with FcgR3b Biotinylated, 5010 nM; with FcgR3a(V), biotinylated, 590 nM.
As for CIS43-LS-AFUC (afucosylated CIS43-LS), the Kd with C1q complement component amounted to 1.7 nM; with FcgR3a(F), biotinylated it was 160 nM; with FcgR3b Biotinylated it was 330 nM.
Regarding CIS43-LS-G236A (IgG1m3-LS-GA), the Kd was found to be 4620 nM in the experiment with FcgR3a(F), biotinylated; 17400 nM with FcgR3b Biotinylated; 1270 nM with FcgR3a(V), biotinylated.
In turn, CIS43-LS-GAALIE (IgG1m3-LS-GAALIE) came in with a Kd in the experiment with FcgR3b Biotinylated of 1020 nM.
